{
  "source": "the DeepSol protein solubility set",
  "data": [
    {"assay": "soluble on expression in E. coli; label from the status in PepcDB or PDB records", "values": [
      {"sequence": "RDPEGLLGDKEDLGITCALIPTDVKGVEIGNRHFPLNVPFQNGPTRGKDIFVPIDFIIGGEKMAGQGWRMLVECLSVGRGITLPSNSTGGIKSAAMATGAYSRIRRQFKQPIGHMEGVEEPLARLGGNAYVMDAASNLTVAGIDLGEKPSVISAIVKYHCTHRGQQSIIDAMDIVGGKGICLGPSNFLARGYQGSPIAVTVEGANILTRSMIIFGQGAIRCHPYVLEEMNAAYSEASDAVEKFDKALAGHVSFTMSNLVRSIWFGLSDGLGSSAPTKDATKRYYQQLNR", "soluble on expression in E. coli": "not soluble"},
      {"sequence": "MGSDKIHHHHHHMEILSLGEKIKARRKELNMTLKDLAGDRITPGQISLVESGKSNPSMDLLEYLAGALNTSVEYLMESEETQAEKICVYYENTAEAYMLNDELMEAEQYLEKAMYYAENYKISYRKARTLYLYGCINMNKNELGVAQQFFLSSNVLFIKLNHYEDIINTFINLGKITLNLKAYNSSCSYFEQAERVSRDNDIGNDFLIGEIYYYMSLVYFKMNNSNKTIKYCLMAKEKFAELENKKEYARTLLILSKEYSKSGDVDNAIKYSKKALKAFKENDNMFAVADIENELGKLFYEFENIEESFIHLNKAKEIRKKTKGHEFIETLCNICENYIKLKDTENSQKVLNEIKENIDGNNVFDILKYYMLKYRISILNRSLKEAENILLRALQYAENMELEKEAAEFSVIIGKYYIDNGDDVEAAKYLNSGIEKFKKIGVLKDL", "soluble on expression in E. coli": "not soluble"},
      {"sequence": "MLHEIPKSEILKELKRIGAKRVLIQSPEGLRREAEELAGFLEENNIEVFLHGEINYGACDPADREAKLVGCDALIHLGHSYMKLPLEVPTIFVPAFARVSVVEALKENIGEIKKLGRKIIVTTTAQHIHQLKEAKEFLESEGFEVSIGRGDSRISWPGQVLGCNYSVAKVRGEGILFIGSGIFHPLGLAVATRKKVLAIDPYTKAFSWIDPERFIRKRWAQIAKAMDAKKFGVIVSIKKGQLRLAEAKRIVKLLKKHGREARLIVMNDVNYHKLEGFPFEAYVVVACPRVPLDDYGAWRKPVLTPKEVEILLGLREEYEFDEILGGPRESDEPFGISIHSTRLEHHHHHH", "soluble on expression in E. coli": "not soluble"},
      {"sequence": "MGSDKIHHHHHHALGVVDEVHAGKEIGLQIYSLSQELYKGDVAANLRKVKDMGYSKLELAGYGKGAIGGVPMMDFKKMAEDAGLKIISSHVNPVDTSISDPFKAMIFKYSKEVTPKIMEYWKATAADHAKLGCKYLIQPMMPTITTHDEAKLVCDIFNQASDVIKAEGIATGFGYHNHNMEFNRVATKEQQEKVKGNPFAAFMKVGDQIYDLMLKDTDPSKVYFEMDVYWTVMGQNDPVEYMQKHPDRIKVLHIKDRAVFGQSGMMNFEMIFKQMYANGIKDYFVELEQMPDGRTQFAGVKDCADYLIKAPFVK", "soluble on expression in E. coli": "not soluble"},
      {"sequence": "MAVRFASLGSGSDGNALLVESTDGTTSTRILLDCGFGIRETVRRLERLGCAPASLDAILVTHEHGDHIGSAYAFAAKYSVPVWTSHGTYRATASLRGADRAAVRFCRADDAFSIGDLRILPYTVPHDAREPLQFIFDDGARRLGVLTDAGMSTEYLCGHLTGLHAFVLECNHDREMLANSAYPWSLKQRIGGDFGHLANDIAAAILARVRHDGLHTVVAAHLSKQNNTPELAAAAIASALGVPAGDVPIADQEAGLGWQAVLEHHHHHH", "soluble on expression in E. coli": "not soluble"},
      {"sequence": "SLVTLGEGFEKARLTRFLEKFGGNEGSQFLYLKDYGHFYYQEEGEDQVLFGFQMKFNKCFVLADPIGQREKWTAATLAFMDQADLLGYQLVFYRISEEYVMNLHDCGFEFMKVGEEGLIQFDEPSTVNQTAWTETVTEKIAAEAADFQFEFYPETISDALYQELERVSADWSRNQKERYFIGGRLDPEYLKCSSVGLVRQKQTVIGFITGKEMEKGKSISYDLLRIRSDAPAFTREYLFTHFIETYQQQGYQLIDIGMAPLANVGESKYSFLKERFVNIFYKYSYQIYAFQDTRKRKEQYVTSWQPRYFAYPKRTSVLFAFVQLSLLITKGRHQSVSLVEEAMTEI", "soluble on expression in E. coli": "not soluble"},
      {"sequence": "MEKNKLRKVGLTALEWLKQHPEIKQHKESSLYEQLFASQQWQQAQTIGMIRSLPLELSTQPIFERAMQESKQVAVPRTFKGGKMHFYQVFPETVYDTSAFGVEEPPLTAAEITATAIDLLIVPGIVFNRAGYRIGFGGGFYDRYLEHFSGHSCSLVFSEQLHEQWQPEAFDQPIEQLFIQLEHHHHHH", "soluble on expression in E. coli": "not soluble"},
      {"sequence": "MSLHWLNRNTRKGSQKNIAAHYDLGNTLFEQFLDPTMMYSAAQFLSNDDTLEQAQLNKLERICQKLALKPTDHLLEIGTGWGSMAIYAAQQYGCRVTTTTLSREQFAYTEQRLIKLGLQDRVTLLLTDYRDLTGEYDKLVSIEMIEAVGHRFLPTYFKQCASLLKSNGMMLLQAITIREQRYAQAKRNVDFIQRYIFPGGALPSVAKMLDIVGSDTDMNLLHMEDFGLHYARTLRLWHDNFKHAHGTLTELGYDDYFLRLWEFYLCYCEGGFLERTIGTAQLLLAKPDALREGHHHHHH", "soluble on expression in E. coli": "not soluble"},
      {"sequence": "MDLHSLCVDSHALRRDGMRFLHTADWQLGMTRHFLAGDAQPRYSAARRDAVAGLKALAADVGAEFVVVAGDVFEHNQLAPQIVGQSLEAMRVIGLPVYLLPGNHDPLDASSVYTSTLFRAERPDNVVVLDRAGVHEVRPGVQIVAAPWRSKAPTTDPVAEVLAGLPTDAAIRLLVAHGGVDALDPDHDKPSLIRLAALDDALTRQAIHYVALGDKHSLTQVGSSGRVWYSGAPEVTNFDDVEPDPGHVLVVDIDESDPRHPVTVDARRIGRWRFVTLHHQVDTSRDIADLDLNLDLMTDKDRTVVRLALTGSLTVTDRAALDTCLDKYARLFAWLGLWERHTDLAVIPVDAEFTDLGIGGFAAAAVDELVATARGGDDESAVDAQAALALLLRLADRGAALEHHHHHH", "soluble on expression in E. coli": "soluble"},
      {"sequence": "KEMKYVVDTSVVISGRVTEMLESGEIKGTIIVPEAVMAELEAQANFGKMTGFQGLSEIEKLTKLAKDKGFEVIFAGERPKLEHIRLAKGGEIDNLIREVAAEFDAVLVTSDRVQHLVARAKGIETIYVRPRVVRPENTRIMSFFTP", "soluble on expression in E. coli": "not soluble"},
      {"sequence": "GSHMLKGQEFAPSHQQVYAPLRADGDKPRAHLTVVRQTPTQHFKNQFPALHWEHELGLAFTKNRMNYTNKFLLIPESGDYFIYSQVTFRGMTSESSEIRQAGRPNKPDSITVVITKVTDSYPEPTQLLMGTKSVSEVGSNWFQPIYLGAMFSLQEGDKLMVNVSDISLVDYTKEDKTFFGAFLL", "soluble on expression in E. coli": "soluble"},
      {"sequence": "GPGSMACARDHLRQTRTHQRHASTRDGQRMRAVSLAADPACTHPPTHTHTHIYTPIYVCRGFVCVTPQWRTELFNVVLLWRRAHTSLLSAACLCPYAQASPSCLHASFLSRLPRLSLSLSPCSCLHPHSTGVFAYIVFLRCRAATQNTSPVSSCVVRLVTRDLCAQSPTPPLPALCGHRNLVSLHRRKTPRLKRRVRTQATQRSDHRSSLIMPVFHAVMSVKESERVERIAPVKNRAWGLRFQCASCNEESTGMMYVNQTEQHERDGGMHNFVSKCKLCKADITADVLPVPAGTGYYSAEEENPANVIAAFEVRGGRPVELEIDNQWMIVTAGGGLFEDVDLSQEWYDYDESSQATVSVAGVSVDFEKSKKK", "soluble on expression in E. coli": "not soluble"},
      {"sequence": "MGSSHHHHHHSSGLVPRGSHMSNQEAIGLIDSGVGGLTVLKEALKQLPNERLIYLGDTARCPYGPRPAEQVVQFTWEMADFLLKKRIKMLVIACNTATAVALEEIKAALPIPVVGVILPGARAAVKVTKNNKIGVIGTLGTIKSASYEIAIKSKAPAIEVTSLACPKFVPIVESNQYRSSVAKKIVAETLQALQLKGLDTLILGCTHYPLLRPVIQNVMGSHVTLIDSGAETVGEVSMLLDYFDIAHTPEAPTQPHEFYTTGSAKMFEEIASSWLGIENLKAQQIHLGGNEND", "soluble on expression in E. coli": "soluble"},
      {"sequence": "MREPGFWHRPPSLVSRLLLPIAAIYGNIAAARMQKAGTTVGVPVLCVGNYHMGGAGKTPTTLALVALLREFGETPVVLSRGYGGRLQGPVQVDPSRHSAADIGDEPLMMARRVPVVVARDRTDGAALACALGATVILMDDGFQNPALTKDASLIVVDSHRSIGNGSVFPAGPLRAPLPLQVARTDALVVVGDGTAADGLAQQITTKGGVVLRARLVPEPASVEALRGRRVLAFAGIGDPARFVATLRDSGVEVVEQRAFADHHPFTAEELAELAAAAKRDGLTLVTTEKDLARIGGAQQALGVEIVPFAVTLAFGDEAKLRLFLLDRLNGARAAKLAGRRMAGDPLEHHHHHH", "soluble on expression in E. coli": "not soluble"}
    ]}
  ]
}
